# Measured values from the nanobody polyreactivity screen of Harvey et al. (2022).
# Experiment: yeast display, Sf9 membrane polyspecificity reagent, FACS + sequencing; frameworks hold sequencing errors
# Outline: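 Galactose-induced (36–48 hours) yeast carrying a synthetic nanobody display library were exposed to 10% biotinylated, detergent-solubilized Sf9 membrane reagent at 4 °C for 1 hour. FACS followed streptavidin microbead enrichment, using low and high (top ~1%) gates for expression (anti-HA) and reagent binding (streptavidin). Colony PCR, MiSeq 2 × 250 sequencing and CDR-length filtering followed. Labels for polyreactivity reflect the gate of origin.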
row,Sequence,polyreactivity (PSR sort gate)
1,QVQLQESGGGLVQAGGSLRLSCAASGTISTIEPMGWYRQAPGKERELVACIGAGTITNYADSVKGRFTISRDNDTVYLQMNSLKPEDTAVYYCNADGWYALYEWLAVSGYYWGQGTQVTVSS,low polyreactivity
2,QVQLVESGGGLVQAGGSLRLSCAASGFIFRWYAMGWYRQAPGKERELVASIDSSGTRTYYADSVKGRFTISRDNAKNTVYLQMNSLKPEDTAVYYCNAEPSSLGETDYDYWGQGTQVTVSS,low polyreactivity
3,QVQLVESGGGLVQAGGSLRLSCAASGSTFLYYAMGWYRQAPGKERELVAAISWSGGSTYYADSVKGRFTISRDNAKNTVYLQMKSLKPEDTAVYYCAASSPWEQSNDQFYYWGQGTQVTVSS,low polyreactivity
4,QVQLVESGGGLVQAGGSLRLSCAASGIIFLDNAMGWYRQAPGKERELVAAITTGGITYYADSVKGRFTISRDNAKNTVYLQMNSLKPEDTAVYYCAADNEWPRYDYWGQGTQVTVSS,low polyreactivity
5,QVQRVESGGRLVQAGGSLRLSCAASGSTFPSYAMGWSRQAPGKERELVAAISWSGGTTYYADSVKGRFTISRDNAKNTVYLQMNSLKPEDTAVYYCAAGGRRQAYGRRDYWGQGNQVTVSS,high polyreactivity
6,QVQLVESGGGLVQAGGSLRLSCAASGFIFNVYAMGWYRQAPGKERELVAAISQRGGRTYYADSVKGRFTISRDNAKNTVYLQMNSLKPEDTAVYYCKLFYPKHGYWGQGTQVTVSS,high polyreactivity
7,QVQLVESGGGLVQAGGRHRLSCAPSASIFSVNAMGWYRQAPGKERELVAAISWRGASTYYADSVKGRFTISRDNPKNTVYLQMNSLKPEDTAVYYCAAKGTGGDQYYAFDYWGQGTQVTVSS,low polyreactivity
8,QVQLVESGGGLVQAGGSLRLSCAASGFIFGTYTMGWYRQAPGKERELVAAISKSSGSTYYADSVKGRFTISRDNAKNTVYLQMNSLKPEDTAVYYCAAPTRSYGTPPYDYWGQGTQVTVSS,low polyreactivity
9,QVQLVESGGGLVQAGGSLRLSCAASGSIFRAYAMGWYRQAPGKERELVAAISWGGGSTSYADSVKGRFTISRDNAKNTVYLQMNSLKPEDTAVYYCNKVSLSKRRDYYWGQGTQVTVSS,high polyreactivity
10,QVQLVESGGGLVQAGGSLRLSCAASGSTFGDYTMGLYRQAPGKERELVAAITLTGGSTYYADSVKGRFTISRDNAKNTVYLQMNSLKPEDTAVYYCAKEWIFDFNYWGQGTQVTVSS,low polyreactivity
11,QVQHVESGGGLVQAGGSLRLSSAASGLTFYHYTMGWYRQAPGKERELVAAITKNGGSTYYADSVKGRFTISRDNAKNTVYLQMNSLKPEDTAVYYCNVGPRRVDRSRAASSDYDYWGQGTQVTVSS,high polyreactivity
12,QVQLVESGGGLVQAGGSLRLSCAASGRTFKGYAMGWYSQAPGKDRELVAAISYRGGSTYYADSVKGRFTISRDNAKNTGYLQMNILKPEDTAFYYCAARWNRGRYDYWGQGTQVTVSS,high polyreactivity
13,QVQLVESGGCLVQAGGSLRLSCPASGFTLPANGMGWYRQAPGKERELVAAISFIAGSTYYADSVKGRFTISRDNAKNTVYLQMNSLKPEDTEVYYCATQFPPSTIYDYWGQGSQVTVSS,low polyreactivity
14,QVQLEESGGGLVQAGGSLRLSCAASGSIFGYNAMGWYRQAPGKERELVAAINVDGGRTYYADSVKGRFTISRDNAKNTVYLQMNSLTPEDTAVFYCAAAYRLQVGRREYWGQGTQVTVSS,high polyreactivity
15,QVQLVESGGGLVQAGGSLRLSCAASGSTFGYYAMGWYRHAHGKERELVAAITGSVDSTYYADSVKGRFTISRDNAKNTVYLQMNSLKPEDTAVYYCAADTYSTYWGQGTQVTVSS,low polyreactivity
16,QVQLVESGGGLVQAGGSLRLSCAASGLILRYNGMGWYRQAPGKERELVAAISSNAGTTSYADSVKGRFTISRDNAKNTVYLQMNSLKPEDTAVYWGQGTQVTVSS,low polyreactivity
17,QVQLVESGGGLVQAGGSLRLSCAASGSIFNRNAMGWYRQAPGKERELVATITRNGGRTYYADSVKGRFTISRDNAKNTVYLQMNSLKPEDTAVYYCNAVRQRLRPGNLFDLDYWGQGTQVTVSS,low polyreactivity
18,QVQLVESGGGLVQAGGSLRLSCAASGSIFGLNAMGWYRQAPGKERELVAAISGGSTNYADSVKGRFTISRDNAKNTVYLQMNSLKPEDTAVYYCAARARRRYYYWGQGTQVTVSS,high polyreactivity
19,QVQLVETGGGLVQAGGSLRLSCAASGIIFSRYAMGWYRQAPGIERELVASITGRVGSTYYADSVKGRFTISRDNAKNTVYLQMNRLKPEDTAVYYCAADYGYKFDYWGQGTQVTVSA,low polyreactivity
20,QVQLVESGGGLVQAGGSLRLSSAASGITFCRNTMGWYRQAPGKERELVAAIDSGGNTYADSVKGRFTISRDNAKNTVNLHINSLKPEYTAVYYCAKDSGPRGSYGYAFDSWGQGTQVTVSS,low polyreactivity
21,QVQLVESAGGLVQAGGSLRLSCSAYGIIFSRYAMGWYRQAHGKERELVAAITSGGSTSYADSVKGRFTISRDNAKNTVYLQMNSLKPADTAVYYCAAQFFYRKSGTWAVYRYNYWGQGTQVTVSS,high polyreactivity

row,Sequence,polyreactivity (PSR sort gate)
1,QVQLVESGGGLDQAGGSLRLSCAASGYILPKNTMGWYRQAPGKERELVAAISWSGGSTFYADSVKGRFTISRDNAKNTVYLQMNSLKPEETAVYYCAADRSWSWYYRYDYWGQGTQVTVSS,low polyreactivity
2,QVQLEESGGGLVQAGGSLRLSCAASGLIFVHYTMGWYRQAPGKERELVAAISRSGGSTSYADSVKGRFTISRDTAKNSVYLQMNSLKPEDTAVYYCAAVGSRSGLTPYEYWGQGTQVTVSS,high polyreactivity
3,QVQLVESGGGLVQAGGSLSLSCAASGSIFVYKAMGWYRPAHGKERELVAAISSSGGSTYYADSVKGRFTISRDNAKNTVYLQMNSLKPEDTAVYYCAAEAVRKVPSYYSYAYYYWGQGTQVTVSS,high polyreactivity
4,QVQLVESGGGLVQAGGSLRLSSAASGFTSSRNAMGWYRQAPGKERELVATISSGGDTYYADSVKGRFTISRDNAKNTVYLQMNSLKPEDTAVYYCATDRAERTGYTRYVKTYNYWGQGTQVTVSS,low polyreactivity
5,QVQLVESGGGLVQAGGSLRLSCAASGSTFSRYAMGWYRQAPGKEMELVAAISWSGGSTYYADSVKGRFTISRDNAKNTVYLQMNSLKPEDTAVYYCAAYTYSFRANHDYWGQGTQVTVTS,high polyreactivity
6,QVQLVESGGGLVQAGGSLRLSCAASGSTSVQYAMGWYRQAPVKERELVAAIDRSGGSTSYADSVKGRFTISRDNANNTVYLQMNSLKPEDTAVYYCNADPVRSTYSYDYWGQGTQVTVSS,low polyreactivity
7,QLQLEESAGGLVQAGGSLRLSCAASGSIFSDNAMGWYRQAPGKERELVASINSGGSTNYADSVKGRFTISRDNAKNTVYLQMNSLKPEYTAVYYFNKEDEVVYPGYPNGGMDYWGQGTQVTVSS,low polyreactivity
8,QVQLVESGGGLVQAGGSLRLSCAASGGIFPYYAMGWYRQAPGKERELVAGISQNDGRTYYADSVKGRFTISRDNAKNTVYLQMNSLIPDDTAVYYCATEYWYPRYGYWGQGTQVTVSS,low polyreactivity
9,QVQLVESGGGLVQAGGSLRLSCAASGSTFYYYAMGWYRQAPGKERELVAAITNVTSTYYADSVKGRFTISRDNEKNTVYLMMNSLKPEDTAVYYCAAPDHCSEVTYDYWGQGTQVCVSS,low polyreactivity
10,QVQLVESGGGLVQAGGSLRLSCAASGSTFVSNAMGWYRQAPGKERELVARITGSGGNTYYADSVKGRFTISRDNAKNTVYLQMNSLKPEDTAVYYCNADVFRKFGSPSAYKSHRYDYWGQGTQVTVSS,low polyreactivity
11,QVQLVESGGGLVQAGGSLSLSCAASGYIFRYYAMGSYRQAPGKEREFGAAISWRGGSTYYADSVKGRFTISRDNAKNTVYLQMNRLKPEDTEFYYCAAGYFSFFGHYNAGLDYWGQGTQVTVSS,high polyreactivity
12,QVQLVESGGGLVQAGGSLRLSCAASGLTFTINAMGWYRQAPGKERELVAAITGNNTSTYYADSVKGRFTISRDNAKNTVYLQMNSLKPEDTAVYYCAASVYHYGPLYYWGQGTQVTVSS,low polyreactivity
13,QVQLVESGGGLVQAGGSLRLSCAASGSNFSSYALGWYRQAPGKERELVAAITSGGSTYYADSVKARFTISRDNAKNTVYLQMNSLKPEDTAVYYCNADISRDNDFDYWGQGTQVTVSS,low polyreactivity
14,QVQLVESGGGLVQAGGSLRLSCAASGRIFYKYVMGWDRQAPGKERELVADINRSGGTTYYADSVKGRFTISRDNAKNTVYLQMNSLKPEDTAVYYCTATLPDYWPYYYYQGGDDYWGQGTQVNVSS,low polyreactivity
15,QVQLVESGGGLVQAAGSLRLSCAASGRTFHWYVMGWYRQAPGKESELDAAITRRGGSTYYADSVKGRFTISRDNAKNTVYLQLNSLKPEDTAVYYCAAVGNRRYYFGYDYWGQGTQVTVSS,high polyreactivity
16,QVQLQESGGGLEPAGGSLRLSCAASGTISVHASMGWYRQAPGKERELVAGITDGANTYYADSVKGRFTISRDNSKNTVYLQMNSLKPEDTAVYYCAAYYGTAFHFTYWCQGTQVTVSS,low polyreactivity
17,QVQLVESGGVLVQAGGSLRLTCAASGRIFQNYAMGWYRQAPAKERELDATISSGVSTYYADSVKGRFTISRDNAKNTVYLQMNSLKPEDTAVYYCAAYVPWFEMDYWGQGTQVTVSS,low polyreactivity
18,QVQLVESGGGLVQAGGSLRLSCAASGRTFDRNAMGWYRQAPGKERELVAAITSSGDSTYYADSVKGRFTISRDNSKNTVYLQMNSLKPEDTAVYYCAAGRRFGYWGQGTQVNVSS,high polyreactivity
19,QVQLVESVGGLVQAGGSLRLSCSASGLIFYDYDMGWYRQAPGKERELVAAISNDASTYYAHSVKGRFTISRDNAKNTVYFQMNSLKTEDTAVYFCAAEPYVFGLSSKPFWYNYWGQGTQVTVSS,low polyreactivity
20,QVQLVESGGGLVQAGGSLRLSCAASGFTFRDYAMGWYRQAPGKERELVAAITRRGGNTYYADSVKGRFTISRDNAKNTVYLQMNSLKPEDTAVYYCAARALSGHYDYWGQGTQVTVSS,high polyreactivity
